The values below come from patent US20150110806A1.

This assay concerns the target CD147 expressed on human endothelial cells (hCMEC/D3, hBMEC) and human brain sections (human) (UniProt P35613). The assay can be described thus: cell-based or functional assay.

With MBP-PilE (from UniProt P0AEX9 27-392), the bacterial adhesion to hCMEC/D3 cells (wild-type Nm, cells pretreated with 10 µg/ml MBP-pilin) came to 60 % reduction. For the substance MBP-PilV, the bacterial adhesion to hCMEC/D3 cells (wild-type Nm, cells pretreated with 10 µg/ml MBP-pilin) was determined as 50 % reduction. Take anti-CD147 antibody MEM-M6/1: the initial attachment of Nm to hBMEC cells under flow conditions (10 µg/ml antibody) is 20 % reduction. In turn, anti-CD147 antibody MEM-M6/6 came in with an initial attachment of Nm to hBMEC cells under flow conditions (10 µg/ml antibody) of 75 % inhibition.
